# Assay results: patent publication US20110189172A1
# Target: IL-1 receptor (human) (UniProt P14778)
# Test: cell-based or functional assay
# Chain of UniProt P14778 (P14778 18-569): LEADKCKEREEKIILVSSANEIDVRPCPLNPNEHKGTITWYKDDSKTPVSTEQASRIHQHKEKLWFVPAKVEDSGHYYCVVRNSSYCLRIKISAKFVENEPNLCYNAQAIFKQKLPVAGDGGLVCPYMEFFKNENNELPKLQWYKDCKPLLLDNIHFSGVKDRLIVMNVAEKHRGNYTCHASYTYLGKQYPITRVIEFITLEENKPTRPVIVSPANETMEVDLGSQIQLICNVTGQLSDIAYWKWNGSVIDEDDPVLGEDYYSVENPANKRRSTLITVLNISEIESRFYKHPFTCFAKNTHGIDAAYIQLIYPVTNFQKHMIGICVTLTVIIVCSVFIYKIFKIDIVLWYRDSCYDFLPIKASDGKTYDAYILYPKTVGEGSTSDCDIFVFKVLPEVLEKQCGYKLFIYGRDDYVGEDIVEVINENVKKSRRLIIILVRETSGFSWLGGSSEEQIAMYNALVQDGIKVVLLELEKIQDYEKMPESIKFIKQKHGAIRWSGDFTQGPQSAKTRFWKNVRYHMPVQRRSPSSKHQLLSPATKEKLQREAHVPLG
substance,measurement,value
"Kineret® (anakinra), recombinant IL-1 receptor antagonist (IL-1Ra) (from UniProt P18510 26-177) (ligand)","IC50 (pM), inhibition of IL-1β induced IL-8 production in human whole blood",53.4 pM
